Measurements from patent publication US20170022503A1 (NATIONAL UNIVERSITY OF SINGAPORE, published 2017).

B1: flag-tagged WARS2(L53F) mutant (human) (enzyme)
chain: LHKGSAAAPALQKDSKKRVFSGIQPTGILHLGNYFGAIESWVRLQDEYDSVLYSIVDLHSITVPQDPAVLRQSILDMTAVLLACGINPEKSILFQQSQVSEHTQLSWILSCMVRLPRLQHLHQWKAKTTKQKHDGTVGLLTYPVLQAADILLYKSTHVPVGEDQVQHMELVQDLAQGFNKKYGEFFPVPESILTSMKKVKSLRDPSAKMSKSDPDKLATVRITDSPEEIVQKFRKAVTDFTSEVTYDPAGRAGVSNIVAVHAAVTGLSVEEVVRRSAGMNTARYKLAVADAVIEKFAPIKREIEKLKLDKDHLEKVLQIGSAKAKELAYTVCQEVKKLVGFL
notes: also called mutant WARS2; not shown: C-terminal myc-DDK (flag) tag of the Origene construct
B2: glyceraldehyde-3-phosphate dehydrogenase (GAPDH) (enzyme)
chain: not shown
notes: GAIT complex component; endogenous protein of HUVEC cells

Assays:
Test in all cases: co-IP of flag-tagged protein from HUVEC cells, blot
[1] = biological target: Ribosomal Protein L 13a (RPL13a) (human, UniProt P40429 2-203)
[2] = biological target: T1, glutamyl-prolyl tRNA synthetase (EPRS) (human, UniProt P07814 1-1512)
T1 construct: GAIT complex component; endogenous protein of HUVEC cells
T1 sequence (P07814 whole entry): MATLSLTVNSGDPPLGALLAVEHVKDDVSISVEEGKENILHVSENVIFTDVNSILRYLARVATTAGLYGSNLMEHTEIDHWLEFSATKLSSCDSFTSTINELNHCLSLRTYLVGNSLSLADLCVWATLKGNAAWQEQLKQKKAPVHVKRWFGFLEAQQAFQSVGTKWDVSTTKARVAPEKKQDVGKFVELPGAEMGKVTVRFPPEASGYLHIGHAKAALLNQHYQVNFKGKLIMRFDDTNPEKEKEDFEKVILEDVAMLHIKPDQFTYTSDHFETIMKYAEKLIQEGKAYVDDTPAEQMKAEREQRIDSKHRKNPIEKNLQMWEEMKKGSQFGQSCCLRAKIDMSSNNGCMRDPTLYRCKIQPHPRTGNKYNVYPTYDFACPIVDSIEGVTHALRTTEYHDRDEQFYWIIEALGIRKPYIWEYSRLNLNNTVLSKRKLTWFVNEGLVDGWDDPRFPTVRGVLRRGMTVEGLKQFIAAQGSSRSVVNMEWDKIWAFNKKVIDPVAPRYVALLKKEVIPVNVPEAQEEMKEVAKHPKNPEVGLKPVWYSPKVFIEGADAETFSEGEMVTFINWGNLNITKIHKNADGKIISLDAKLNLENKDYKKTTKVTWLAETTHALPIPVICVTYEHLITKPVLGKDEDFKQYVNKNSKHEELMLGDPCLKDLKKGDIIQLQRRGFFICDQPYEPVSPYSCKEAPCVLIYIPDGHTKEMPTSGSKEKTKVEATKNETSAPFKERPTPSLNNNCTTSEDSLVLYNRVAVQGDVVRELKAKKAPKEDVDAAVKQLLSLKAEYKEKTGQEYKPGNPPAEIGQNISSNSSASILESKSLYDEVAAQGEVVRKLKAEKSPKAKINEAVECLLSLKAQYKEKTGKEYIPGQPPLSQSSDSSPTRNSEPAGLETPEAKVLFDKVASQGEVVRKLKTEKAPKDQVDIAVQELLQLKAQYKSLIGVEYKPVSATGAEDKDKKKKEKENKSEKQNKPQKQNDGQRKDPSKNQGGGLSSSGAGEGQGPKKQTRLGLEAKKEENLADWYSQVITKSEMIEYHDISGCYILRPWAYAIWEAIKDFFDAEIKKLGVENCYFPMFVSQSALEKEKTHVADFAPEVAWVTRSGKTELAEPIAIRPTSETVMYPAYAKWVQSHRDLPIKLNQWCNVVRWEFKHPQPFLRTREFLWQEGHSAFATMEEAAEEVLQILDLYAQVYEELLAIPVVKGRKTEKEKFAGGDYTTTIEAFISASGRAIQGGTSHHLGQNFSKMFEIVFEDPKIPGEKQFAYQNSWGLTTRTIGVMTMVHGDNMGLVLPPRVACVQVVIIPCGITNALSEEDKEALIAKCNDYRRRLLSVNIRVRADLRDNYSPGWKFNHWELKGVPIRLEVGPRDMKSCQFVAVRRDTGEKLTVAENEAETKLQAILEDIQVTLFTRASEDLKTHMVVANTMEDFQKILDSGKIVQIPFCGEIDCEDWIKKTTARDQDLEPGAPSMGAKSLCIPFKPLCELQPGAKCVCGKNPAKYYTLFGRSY

[3] = biological target: B1

B1
binding result [1]: no binding
binding result [2]: no binding

B2
binding result [3]: no binding
